The values below come from patent US7723070B2, “Overexpression of aminoacyl-tRNA synthetases for efficient production of engineered proteins containing amino acid analogues” (California Institute of Technology, priority 2000, dated 2010).

Substrate in data set [1]: CSCC[C@H](N)C(=O)O
Put plainly: purified protein, by the assay type. The conditions noted are these: 25.0 °C.

Substrate in data set [2]: C=CCCC(N)C(=O)O
Put plainly: ATP-PPi exchange assay: activation of methionine and methionine analogues by MetRS. Type of data set: biochemical, E. coli. Conditions: other: ATP-PPi exchange, purified truncated MetRS; 25.0 °C.

Substrate in data set [3]: C#CCCC(N)C(=O)O
The description is as above. Conditions: other: ATP-PPi exchange, purified truncated MetRS; 25.0 °C. Type of data set: biochemical, E. coli.

Substrate in data set [4]: C/C=C/CC(N)C(=O)O
The description is as above. Conditions: 25.0 °C. Type of data set: biochemical, E. coli.

Substrate in data set [5]: CCCC[C@H](N)C(=O)O
The data set is described as above. Type of data set: biochemical, E. coli. The conditions noted are these: other: ATP-PPi exchange, purified truncated MetRS; 25.0 °C.

The mark [6] stands for this setting: other: ATP-PPi exchange, purified truncated MetRS.
Where [7] appears, read: other: Example I text, 75 nM enzyme.

B1: methionyl tRNA synthetase (MetRS) (Escherichia coli K-12) (protein)
chain: MTQVAKKILVTCALPYANGSIHLGHMLEHIQADVWVRYQRMRGHEVNFICADDAHGTPIMLKAQQLGITPEQMIGEMSQEHQTDFAGFNISYDNYHSTHSEENRQLSELIYSRLKENGFIKNRTISQLYDPEKGMFLPDRFVKGTCPKCKSPDQYGDNCEVCGATYSPTELIEPKSVVSGATPVMRDSEHFFFDLPSFSEMLQAWTRSGALQEQVANKMQEWFESGLQQWDISRDAPYFGFEIPNAPGKYFYVWLDAPIGYMGSFKNLCDKRGDSVSFDEYWKKDSTAELYHFIGKDIVYFHSLFWPAMLEGSNFRKPSNLFVHGYVTVNGAKMSKSRGTFIKASTWLNHFDADSLRYYYTAKLSSRIDDIDLNLEDFVQRVNADIVNKVVNLASRNAGFINKRFDGVLASELADPQLYKTFTDAAEVIGEAWESREFGKAVREIMALADLANRYVDEQAPWVVAKQEGRDADLQAICSMGINLFRVLMTYLKPVLPKLTERAEAFLNTELTWDGIQQPLLGHKVNPFKALYNRIDMRQVEALVEASK
notes: The fully active, truncated form of methionyl tRNA synthetase (MetRS) was purified from overnight cultures of JM101 cells carrying the plasmid pGG3; made in house; host or cells: E. coli JM101 carrying plasmid pGG3
On to B1, for which the Km in data set [1] (setting [6]) is 24.3 ± 2 µM; in data set [2] it was 4.555 ± 0.2 mM; in data set [3] it was 2415 ± 170 µM; in data set [4] (setting [6]), 15,675 ± 250 μM; in data set [5], 4.12 ± 0.9 mM. The kcat in data set [1] (setting [6]) worked out at 13.3 s⁻¹; in data set [2], 1.35 ± 0.1 s⁻¹; in data set [3], 2.6 ± 0.3 s⁻¹; in data set [4] (setting [6]), 1.82 ± 0.6 s⁻¹; in data set [5], 2.15 ± 0.6 s⁻¹. Also, the kcat/Km in data set [1] (setting [6]) is 547000 M⁻¹ s⁻¹; in data set [1] (setting [7]) it was 0.54 s^−1μM^−1; in data set [2], 296 M⁻¹ s⁻¹; in data set [3], 1080 M⁻¹ s⁻¹; in data set [4] (setting [6]) it was 116 M⁻¹ s⁻¹; in data set [4] (setting [7]) it was 1.1×10^−4 s^−1μM^−1. For the same protein, in data set [5], the kcat/Km was 522 M⁻¹ s⁻¹.

The term Km denotes the substrate concentration at which the rate is half of its maximum. The kcat is the maximal rate divided by the concentration of active sites.
